Earlier results on 1 substance are cited in article PMC7488417.

The series concerns the target cJun LZ (Homo sapiens) (UniProt P05412). In words: ITC. Background: ITC needs no label: the signal is the heat of the interaction.

Chain of cFos LZ (P01100 162-193): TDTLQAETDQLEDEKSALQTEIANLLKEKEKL
Chain of cJun LZ (Homo sapiens) (P05412 277-308): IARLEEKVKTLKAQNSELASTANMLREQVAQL

Usually Kd stands for the constant that tells how readily two partners part at equilibrium. In the case of cFos LZ (from UniProt P01100), the Kd is 26.6 µM.
